Our source for the ED50 values is patent publication US6933284.

The experiment has as its target LDL receptor on normal human fibroblasts (human) (UniProt P01130). In words: competition with 125I-labeled human plasma LDL (2 µg/ml) for LDL receptors on normal human fibroblasts, 3 h at 4 °C.

“recombinant control LDL (human apo-B100 with leucine in place of glutamine at position 2153), P04114 28-4563” gave an ED50 of 2.3 µg/mL.
Then “R3500Q LDL (recombinant LDL, human apo-B100 with glutamine for arginine at residue 3500), P04114 28-4563”, with over 20 µg/mL.
Regarding “RK3359-3369SA LDL (recombinant LDL, human apo-B100 with the arginines of Site B changed to serines and the lysines to alanines), P04114 28-4563”, the ED50 is over 20 µg/mL.
The substance “K3363E LDL (recombinant LDL, human apo-B100 with glutamic acid for lysine at residue 3363), P04114 28-4563” displayed an ED50 of 2.4 µg/mL.
